According to paper PMC10665946:

What was measured:
[1] = target: V113A LukB CC8 LukAB (S. aureus); experiment: negative stain electron microscopy; 0.03 mg/ml protein in TBS + 20% v/v MPD, RT 45 min; uranyl formate stain; 2D class averages
[2] = target: V113A LukB CC8 LukAB (S. aureus); experiment: negative stain electron microscopy; 0.03 mg/ml protein in TBS + 40% v/v MPD, RT 45 min; uranyl formate stain; 2D class averages
[3] = target: WT CC8 LukAB (leukocidin A/leukocidin B) heterodimer (S. aureus); experiment: as above

For V113A LukB CC8 LukAB (complex), the stoichiometry N [1] was 8 and the stoichiometry N [2] was 8.
For “WT CC8 LukAB (leukocidin A/leukocidin B) heterodimer (complex)”, the stoichiometry N [3] was 8.
